The source of these data is FireProtDB (doi:10.1021/bi961660c).

Values joined by “and” are separate entries in the source; they are usually repeats but may differ in a detail not shown here. Identical values can stand only once.

B1: Tryptophan synthase alpha chain, P0A877 (parent)
chain: MERYESLFAQLKERKEGAFVPFVTLGDPGIEQSLKIIDTLIEAGADALELGIPFSDPLADGPTIQNATLRAFAAGVTPAQCFEMLALIRQKHPTIPIGLLMYANLVFNKGIDEFYAQCEKVGVDSVLVADVPVEESAPFRQAALRHNVAPIFICPPNADDDLLRQIASYGRGYTYLLSRAGVTGAENRAALPLNHLVAKLKEYNAAPPLQGFGISAPDQVKAAIDAGAAGAISGSAIVKIIEQHINEPEKMLAALKVFVQPMKAATRS

Variants of B1 are the subject of the series. To be noted: Escherichia coli (strain K12), pH 7, 25 °C, GdnHCl, CD, Tris-HCl 20 mM, reversible: yes, structure 1WQ5, whole UniProt chain shown.

With MERYESLFAQLKERKEGAFVPFVTLGDPGIEQSLKIIDTLIEAGADALELGIPFSDPLADGPTIQNATLRAFAAGVTPAQCFEMLALIRQKHPTIPIGLLMYANLVFNKGIDEFYAQCEKVGVDSVLVADVAVEESAPFRQAALRHNVAPIFICPPNADDDLLRQIASYGRGYTYLLSRAGVTGAENRAALPLNHLVAKLKEYNAAPPLQGFGISAPDQVKAAIDAGAAGAISGSAIVKIIEQHINEPEKMLAALKVFVQPMKAATRS [P132A], the “ddG of mutation (higher = less stable)” value was determined as 1.05 kcal/mol and the unfolding free energy amounted to 7.15 kcal/mol. For the same variant, the unfolding free energy (transition: 3) was 3.33 kcal/mol and 3.85 kcal/mol.
As to MERYESLFAQLKERKEGAFVPFVTLGDPGIEQSLKIIDTLIEAGADALELGIPFSDPLADGPTIQNATLRAFAAGVTPAQCFEMLALIRQKHPTIAIGLLMYANLVFNKGIDEFYAQCEKVGVDSVLVADVPVEESAPFRQAALRHNVAPIFICPPNADDDLLRQIASYGRGYTYLLSRAGVTGAENRAALPLNHLVAKLKEYNAAPPLQGFGISAPDQVKAAIDAGAAGAISGSAIVKIIEQHINEPEKMLAALKVFVQPMKAATRS [P96A], the “ddG of mutation (higher = less stable)” value is 2.13 kcal/mol and the unfolding free energy turned out to be 6.08 kcal/mol. Besides, for the setting “transition: 3”, the “ddG of mutation (higher = less stable)” value was 1.6 kcal/mol and 0.55 kcal/mol; the unfolding free energy is 2.63 kcal/mol and 3.44 kcal/mol.
Turning to MERYESLFAQLKERKEGAFVPFVTLGDAGIEQSLKIIDTLIEAGADALELGIPFSDPLADGPTIQNATLRAFAAGVTPAQCFEMLALIRQKHPTIPIGLLMYANLVFNKGIDEFYAQCEKVGVDSVLVADVPVEESAPFRQAALRHNVAPIFICPPNADDDLLRQIASYGRGYTYLLSRAGVTGAENRAALPLNHLVAKLKEYNAAPPLQGFGISAPDQVKAAIDAGAAGAISGSAIVKIIEQHINEPEKMLAALKVFVQPMKAATRS [P28A], the “ddG of mutation (higher = less stable)” value came out at 1.91 kcal/mol and the unfolding free energy worked out at 6.29 kcal/mol. Besides, the unfolding free energy (transition: 3) is 2.27 kcal/mol and 4.04 kcal/mol.
As to MERYESLFAQLKERKEGAFVPFVTLGDPGIEQSLKIIDTLIEAGADALELGIPFSDPLADGPTIQNATLRAFAAGVTPAQCFEMLALIRQKHPTIPIGLLMYANLVFNKGIDEFYAQCEKVGVDSVLVADVPVEESAPFRQAALRHNVAPIFICPPNADDDLLRQIASYGRGYTYLLSRAGVTGAENRAALPLNHLVAKLKEYNAAAPLQGFGISAPDQVKAAIDAGAAGAISGSAIVKIIEQHINEPEKMLAALKVFVQPMKAATRS [P207A], under “transition: 3”, the unfolding free energy was 2.44 kcal/mol and 4.62 kcal/mol.
On to MERYESLFAQLKERKEGAFVPFVTLGDPGIEQSLKIIDTLIEAGADALELGIPFSDALADGPTIQNATLRAFAAGVTPAQCFEMLALIRQKHPTIPIGLLMYANLVFNKGIDEFYAQCEKVGVDSVLVADVPVEESAPFRQAALRHNVAPIFICPPNADDDLLRQIASYGRGYTYLLSRAGVTGAENRAALPLNHLVAKLKEYNAAPPLQGFGISAPDQVKAAIDAGAAGAISGSAIVKIIEQHINEPEKMLAALKVFVQPMKAATRS [P57A], for which the “ddG of mutation (higher = less stable)” value stood at 0.48 kcal/mol and the unfolding free energy was 7.73 kcal/mol. Besides, for the setting “transition: 3”, the “ddG of mutation (higher = less stable)” value was determined as 0.24 kcal/mol; the unfolding free energy was 4 kcal/mol and 3.76 kcal/mol.
In the case of MERYESLFAQLKERKEGAFVPFVTLGDPGIEQSLKIIDTLIEAGADALELGIPFSDPLADGATIQNATLRAFAAGVTPAQCFEMLALIRQKHPTIPIGLLMYANLVFNKGIDEFYAQCEKVGVDSVLVADVPVEESAPFRQAALRHNVAPIFICPPNADDDLLRQIASYGRGYTYLLSRAGVTGAENRAALPLNHLVAKLKEYNAAPPLQGFGISAPDQVKAAIDAGAAGAISGSAIVKIIEQHINEPEKMLAALKVFVQPMKAATRS [P62A], the “ddG of mutation (higher = less stable)” value stood at 0.31 kcal/mol and the unfolding free energy stood at 7.89 kcal/mol. Besides, under “transition: 3”, the unfolding free energy is 3.54 kcal/mol and 4.35 kcal/mol.
